The record followed here is paper PMC5374532, “Rational mutagenesis by engineering disulphide bonds improves Kluyveromyces lactis beta-galactosidase for high-temperature industrial applications” (Scientific Reports, 2017).

Substrate in the data set: O=[N+]([O-])c1ccc(O[C@@H]2O[C@H](CO)[C@H](O)[C@H](O)[C@H]2O)cc1
Description: purified protein. The class given is biochemical, Kluyveromyces lactis. As to conditions: Z buffer (100 mM Na2HPO4, 40 mM NaH2PO4, 10 mM KCl, 1.6 mM MgSO4), 30 °C, 0.3 μg/mL enzyme, substrate 0-20 mM.

B1: Kl-β-Gal (Kluyveromyces lactis β-galactosidase) (Kluyveromyces lactis NRRL Y-1140) (protein)
chain: SCLIPENLRNPKKVHENRLPTRAYYYDQDIFESLNGPWAFALFDAPLDAPDAKNLDWETAKKWSTISVPSHWELQEDWKYGKPIYTNVQYPIPIDIPNPPTVNPTGVYARTFELDSKSIESFEHRLRFEGVDNCYELYVNGQYVGFNKGSRNGAEFDIQKYVSEGENLVVVKVFKWSDSTYIEDQDQWWLSGIYRDVSLLKLPKKAHIEDVRVTTTFVDSQYQDAELSVKVDVQGSSYDHINFTLYEPEDGSKVYDASSLLNEENGNTTFSTKEFISFSTKKNEETAFKINVKAPEHWTAENPTLYKYQLDLIGSDGSVIQSIKHHVGFRQVELKDGNITVNGKDILFRGVNRHDHHPRFGRAVPLDFVVRDLILMKKFNINAVRNSHYPNHPKVYDLFDKLGFWVIDEADLETHGVQEPFNRHTNLEAEYPDTKNKLYDVNAHYLSDNPEYEVAYLDRASQLVLRDVNHPSIIIWSLGNEACYGRNHKAMYKLIKQLDPTRLVHYEGDLNALSADIFSFMYPTFEIMERWRKNHTDENGKFEKPLILCEYGHAMGNGPGSLKEYQELFYKEKFYQGGFIWEWANHGIEFEDVSTADGKLHKAYAYGGDFKEEVHDGVFIMDGLCNSEHNPTPGLVEYKKVIEPVHIKIAHGSVTITNKHDFITTDHLLFIDKDTGKTIDVPSLKPEESVTIPSDTTYVVAVLKDDAGVLKAGHEIAWGQAELPLKVPDFVTETAEKAAKINDGKRYVSVESSGLHFILDKLLGKIESLKVKGKEISSKFEGSSITFWRPPTNNDEPRDFKNWKKYNIDLMKQNIHGVSVEKGSNGSLAVVTVNSRISPVVFYYGFETVQKYTIFANKINLNTSMKLTGEYQPPDFPRVGYEFWLGDSYESFEWLGRGPGESYPDKKESQRFGLYDSKDVEEFVYDYPQENGNHTDTHFLNIKFEGAGKLSIFQKEKPFNFKISDEYGVDEAAHACDVKRYGRHYLRLDHAIHGVGSEACGPAVLDQYRLKAQDFNFEFDLAFE
notes: full length, N-terminal FLAG tag kept (YEpFLAG vector); monomer 118 kDa; active as dimer and tetramer
Usually Km stands for the concentration of substrate that gives half-maximal velocity. In general, Vmax refers to the top rate of the reaction or transport when substrate is in excess. On to B1, for which the Michaelis constant (Km) is 2150 ± 520 µM and the Vmax was determined as 71.9 µmol/min/mg.
